Experimental data: patent US10077295B2, “Glycoproteins having lipid mobilizing properties and therapeutic uses thereof” (Aston University, priority 2010, dated 2018)

Assays:
[1] = test system: rat epididymal adipocytes; assay: Lipolytic activity in rat adipocytes; format: cell-based; conditions: concentrations between 233 and 700 nM
Description: Lipolytic Activity in Rat Adipocytes—White adipocytes were prepared from finely minced epididymal adipose tissue of male Wistar rats (400 g) using collagenase digestion, as described (Beck S A, et al. Production of lipolytic and proteolytic factors by a murine tumor-producing cachexia in the host. Cancer Res 47:5919-5923, 1987). Lipolytic activity was determined by incubating 10^5-2×10^5 adipocytes for 2 h in 1 ml Krebs-Ringer bicarbonate buffer, pH 7.2, and the extent of lipolysis was determined by measuring the glycerol released (Wieland O. Glycerol UV method. Methods of Enzymatic Analysis, edited by Bergmeyer H U. Academic Press, London, pp 1404-1409, 1974). Spontaneous glycerol release was measured by incubating adipocytes alone. Lipolytic activity was expressed as μmol glycerol released/10^5 adipocytes/2 h.

human β2-AR = molecular target: T1, human β2-AR (Homo sapiens, UniProt P07550); assay: [125I] ZAG binding to crude membranes of CHO-K1 β2 cells; conditions: single freeze/thaw cycle
T1 construct: host or cells: CHO-K1
Description: (§1) [^125I] labelling of ZAG. One iodo bead that had been washed and dried was incubated with Na [^125I] (1 mCi per 100 μg protein) for 5 min in PBS, then ZAG (100 μg protein) was added and left for a further 15 min. The reaction was terminated by removal of the iodo bead, while free Na [^125I] was removed using a Sephadex G25 column eluted with 0.1MNaI. The [^125I] ZAG was concentrated against PBS using a Microcon microconcentrator with a filter cut-off of Mr 10,000. The specific activity of the [^125I] ZAG was 8 Cimg protein^1.
(§2) For binding studies cells were sonicated in 2 mM Tris HCl, pH7.5, containing […] and crude total membranes were pelleted by centrifugation (13,000 g; 15 min) at 4° C. Binding studies were carried out at 37° C. by incubating membranes (500 μg protein) in 0.4 ml 50 mM Tris HCl, pH 7.5, containing 0.5 mM MgCl2 for 60 min with various concentrations of [^125I] ZAG (3,000 to 15,000 cpm) in the absence or presence of 100 μM non-labelled ZAG. The membranes were then precipitated by centrifugation at 13000 g for 20 min, the supernatant was removed and the [^125I] bound to the pellet was quantitated using a Packard Corbra Model 5005 Auto-gamma counter. Binding was analysed using non-linear regression analysis (GraphPad Prism, Version 5.04). Specific binding was regarded as the amount of labelled ZAG displaced by non-radioactive ZAG.

human β1-AR = molecular target: T2, human β1-AR (Homo sapiens, UniProt P08588); assay: [125I] ZAG binding to crude membranes of CHO-K1 β1 cells
T2 construct: host or cells: CHO-K1
Description: as §1, §2

ob/ob mice [2] = assay: Glucose tolerance test in ob/ob mice after 3 days of ZAG; format: in vivo, mouse
Description: FIG. 2A is a graphical diagram showing glucose tolerance of ob/ob mice treated with ZAG. Plasma glucose levels in ob/ob mice in the fed state either treated with ZAG (▪) or PBS (♦) for 3 days after […]. p<0.001 from PBS. Blood samples were removed from the tail vein at intervals after glucose administration and used for the measurement of glucose and insulin.
FIG. 2B is a graphical diagram showing plasma insulin levels in ob/ob mice treated with ZAG after oral administration of glucose (1 g/kg). p<0.001 from PBS.
To investigate this, a glucose tolerance test was performed, on fed animals, after 3 days of ZAG administration (FIG. 2A). […] The glucose uptake in gastrocnemius muscle of ZAG treated mice was greater than the response to insulin in non-treated animals.

[3] = test system: adipocytes and gastrocnemius muscle of ob/ob mice; assay: Glucose uptake into adipocytes and gastrocnemius muscle of ZAG-treated ob/ob mice; format: in vivo, mouse
Description: Glucose Uptake into Adipocytyes. Isolated adipocytes (5×10^4) were washed twice in 1 ml Krebs-Ringer bicarbonate buffer, pH 7.2 (KRBS) and further incubated for 10 min at room temperature in 0.5 ml KRBS containing 18.5 MBq 2-[1-^14C] deoxy-D-glucose and non-radioactive 2-deoxy-D-glucose to a final concentration of 0.1 mM. Uptake was terminated by the addition of 1 ml ice-cold glucose-free KRBS, and the cells were washed three times with 1 ml KRBS, lysed by addition of 0.5 ml 1M NaOH and left for at least 1 h at room temperature before the radioactivity was determined by liquid scintillation counting.
Glucose Uptake into Gastrocnemius Muscle—Gastrocnemius muscles were incubated in Krebs-Henseleit bicarbonate buffer for 45 min at 37° C. and then incubated for a further 10 min in 5 ml Krebs-Henseleit buffer containing 185M Bq 2-[1-^14C] deoxy-D-glucose and non-radioactive 2-deoxy-D-glucose to a final concentration of 0.1 mM. The muscles were then removed and washed in 0.9% NaCl for 5 min followed by dissolution in 0.5 ml 1M NaOH and the radioactivity was determined by liquid scintillation counting.

ob/ob mice [4] = assay: Body weight loss by route of administration of ZAG in ob/ob mice; format: in vivo, mouse; conditions: for Body weight loss / % of i.v. loss over the same time: 50 ug/day
Description: The goal of the study was to compare the efficacy of ZAG via various routes of administration. Mice were orally administered 50 μg ZAG or PBS (control). The results of are shown in FIGS. 31, 32, 33 (8 day oral ZAG study); 36, 37, 40 (8 day oral ZAG plus propranolol study); and FIGS. 47, 48 (oral ZAG gavage study). As shown in these repeated studies, ZAG was unexpectedly shown to be effective in bringing about weight change when administered orally by simply mixing low doses of ZAG in the drinking water of mice without requiring systemic absorption of administered ZAG. Typical oral dosing of proteins, such as insulin, can require up to 10× (or mega dosing) the intravenous dose to achieve the same level of efficacy and such limited efficacy requires systemic absorption of such proteins.

T2 sequence (P08588 whole entry): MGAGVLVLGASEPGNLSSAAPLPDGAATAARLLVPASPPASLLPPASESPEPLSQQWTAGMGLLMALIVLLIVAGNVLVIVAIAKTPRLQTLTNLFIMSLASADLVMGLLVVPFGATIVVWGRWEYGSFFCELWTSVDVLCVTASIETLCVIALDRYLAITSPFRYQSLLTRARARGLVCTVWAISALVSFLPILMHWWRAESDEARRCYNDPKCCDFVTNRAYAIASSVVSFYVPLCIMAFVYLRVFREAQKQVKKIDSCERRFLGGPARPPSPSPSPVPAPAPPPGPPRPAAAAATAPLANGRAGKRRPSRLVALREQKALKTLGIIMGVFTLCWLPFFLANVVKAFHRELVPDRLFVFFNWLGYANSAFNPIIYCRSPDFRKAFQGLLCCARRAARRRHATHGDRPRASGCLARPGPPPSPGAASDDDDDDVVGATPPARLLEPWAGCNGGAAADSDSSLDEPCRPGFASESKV

B1: ZAG: recombinant full length human zinc-α2-glycoprotein (SEQ ID NO: 1) secreted by transfected HEK293F cells; lipid mobilizing factor (protein, listed as Homo sapiens)
chain: QENQDGRYSLTYIYTGLSKHVEDVPAFQALGSLNDLQFFRYNSKDRKSQPMGLWRQVEGMEDWKEDSQLQKAREDMETLKDIVEYYNDSNGSHVLQGRFGCEIENNRSSGAFWKYYYDGKDYIEFNKEIPAWVPFDPAAQITKQKWEAEPVYVQRAKAYLEEECPATLRKYLKYSKNILDRQDPPSVVVTSHQAPGEKKKLKCLAYDFYPGKIDVHWTRAGQVQEPELRGDVLHNGNGTYQSWVVVAVPPQDTAPYSCHVQHSSLAQPLVVPWEAS
With B1 the “glycerol release from rat epididymal adipocytes” value [1] was “dose-related increase in glycerol release”, the “effect of freeze-thawing on binding to β2-AR” value (human β2-AR) was “eliminated binding” and the “binding to the β1-AR” value (human β1-AR) was “no binding”. For the same molecule, the “blood glucose levels in glucose tolerance test” value (ob/ob mice [2]; fed ob/ob mice, after 3 days of ZAG) was “only a small rise”, the “plasma insulin levels in glucose tolerance test” value (ob/ob mice [2]; ob/ob mice, 60 min of observation) was “significantly lower” and the “glucose uptake into gastrocnemius muscle” value ([3]; absence and presence of insulin (100 nM)) was “significantly enhanced”. For the same molecule, the “glucose uptake into epididymal, visceral and subcutaneous adipocytes” value ([3]; absence of insulin, ob/ob mice treated 5 days) was “increased glucose uptake”, the “efficacy of lowering of urinary glucose, oral vs i.v.” value (ob/ob mice [4]; after 5 days of dosing) was “equally as good” and the Body weight loss (ob/ob mice [4]; intraveneous, 20 Days) was −9.0%. The Body weight loss (ob/ob mice [4]; oral-casein (casein with ZAG in drinking water), 8 Days) was −3.4%, the “% of i.v. loss over the same time” value (ob/ob mice [4]; oral-casein, 8 Days) was 57% and the “% of i.v. loss over the same time” value (ob/ob mice [4]; oral-casein, 20 Days) was 76%. For the same molecule, the Body weight loss (ob/ob mice [4]; oral-casein, 20 Days) was −6.8%, the Body weight loss (ob/ob mice [4]; oral-gavage (directly into the stomach), 8 Days) was −2.3% and the “% of i.v. loss over the same time” value (ob/ob mice [4]; oral-gavage, 8 Days) was 38%. For the same molecule, the Body weight loss (ob/ob mice [4]; oral-water (in the drinking water), 8 Days) was −4.3%, the “% of i.v. loss over the same time” value (ob/ob mice [4]; oral-water, 8 Days) was 72% and the “% of i.v. loss over the same time” value (ob/ob mice [4]; oral-water, 20 Days) was 68%. The Body weight loss (ob/ob mice [4]; oral-water, 20 Days) was −6.1% and the “weight-loss efficacy of oral dosing relative to intravenous administration” value (ob/ob mice [4]; same dose) was ≤ 75%.
